Results taken from the DeepSol protein solubility set.

Test: soluble on expression in E. coli; label from the status in PepcDB or PDB records

Row | Sequence | soluble on expression in E. coli
1 | MGSDKIHHHHHHMTDQTRFFDEMTGGAPQARGPYQPYDAWFQGEDLDEIRKKSAEAEGFFRRTGITFNVYGQTEADERLIPFDVVPRIISGREWTRLTRGIEQRVRALNAFLYDIYHRQEILRAGRVPRELIDGNEAFLPQMMGVAPPGGIYTHIVGTDLVRTGEDEFFVLEDNARTPSGVSYMLENRETMLQMFPDLFSRIKVRPVQNYPANLRRSLAACAPNACTGECTVAVLTPGIHNSAYFEHAFLADQMGVELVEGHDLRVKDGRIAMRTTEGYKAIDVLYRRVDDDFLDPLNFNPDSMLGVPGIMDVYRAGGITIANAPGTGISDDKALYSYMPDIIEFYTGEKALLQNVPTHRCSEPEALKYVLDNLAELVVKEVHGSGGYGMLVGPAASKTEIEAFRKKLEANPSNYIAQPTLALSTCPILTEAGLAPRHVDLRPFVLMAPNKTTITPGGLTRVALAEGSLVVNSSQGGGTKDTWVLED | not soluble
2 | MGHHHHHHSHMSDWEDDDFEPEVSTFKRAEPAPEPVKIVDAPPPPQKAAPAAPKTLKAAPTFAMESLGRELTSAEKEAIQKKNDLALARDLFGDDDSAEATDEAKTYANIMSKADFEYWGERVGGFLASRSKASCYGDMIGKLLTSVTDEMTPAEILKMVTFLQQISAAKKTAEKTKAKATTAAKPAAAANKKNAKATLKVTKGNDSMYDDYGDDQDDYDDY | soluble
3 | LMTIKCLLLAVMVCPFFITACSDKYSEQDRVQAINNADAPFGAGLLTFQISSDTQLNSLNEISNSCALLFLQASDKNTLQDIMNNPVLIKQFFIGTGKVDGILKVDKYVAMPGQEITLHIDRNEGTKYVGVVAGYYPFPGKQHMLLLDIPVDVVEEGWWNKSLHASLLPLSKKISMGKESISMK | not soluble
4 | MGSDKIHHHHHHKDPVINDLKDSEGNNISFTLNAPNNSSYTLMPENASSIIDIFTCEQPDYGFAAGVTYTVQVCEGGTEFEKFESLPTTGSGEKVLIKTFELNDAMNNLGMVNPTVAYNVDFRLKAFINDSVPELYSNTVNMAITPYSGARTQVYFVGDIFDNGWNNNDPSMRIFADDDVNNMLFTYTGFVKAGSAFKIIQTPGDWGIQWGYDSDGALSNDGGSGNIEGFTQDGYYTITLDLAGNKYSIEPYTGATTEYKQISLIGDFNDWGGDLDLQQASYDKHIWIGEKIEIPSDGGLKLRADHDWAVSFGGSNSLWNDKQGQFAKFDGGDNVKVSAGTYFIKFNDLTKHIILLAE | not soluble
5 | MGSDKIHHHHHHMKKVIPALALVLLTTGLVGCDRVEPGNVGIKVNKLGDDKGVGEVVGVGRYWTGWNTEVYIFPTFKQMKTYDEPFSFQMSDGTTIGYHIGVAYKVDPSKVTTVFQTYRKGVDDITDTDLRQKIADALNRLASKMTTDKFIDGGKSELLDAALKDIQEEMTPIGIQVMSLSYVGKPEYPPTVIDSINAKVTANQKTLQCEQEVKQREAEANMLRAEAAGQADAIRTKAQAEADAIRLRGEALRQNPNVMELEAINKWNGTLPQYMTSGANTPFIQVK | not soluble
6 | MSLEDYCTPGAFELERLFWKGSPQYTHVNEVWPKLYIGDEATALDRYRLQKAGFTHVLNAAHGRWNVDTGPDYYRDMDIQYHGVEADDLPTFDLSVFFYPAAAFIDRALSDDHSRKRDVRVRNLCRKAGPLGLLVAEGKGKILVHCVMGRSRSATLVLAYLMIHKDMTLVDAIQQVAKNRCVLPNRGFLKQLRELDKQLVQQRRRSEGHHHHHH | soluble
7 | MNAGKEFNYYTYQSDSSQGSLQKAPDENTDYFTHKMNSYLPFDMSTLYANQPTEKIQILQEIYDTERTYVKALTIVDEIFIQQLNLWCPKSKKCFRSMFGEISAICKTHQILLESLQCKPIAEVFTKFVPFLKLYTSYASHYPNSLKIFAKLMSRNDFRKALTKIEEDPRVDGKKLQTYLIMPIQRIPRYIMLIQNLMNYSTEKDDMTNLYKALSGMQGLSDQIQSCMTAYENGERLLQIQLNFGLDGHILEPGRVLLKEGMLYKRELNGSANYQETVVFLFNDILLYGIKRISVMPLCKYEPSAILSLRHCIVQLDDIGGSIFIRCGDVGVDFTAYSLGGVTEWYNEICDAIDNAKKLRDTLRKESFKQKSLIFDKGFWQRNRDKLRNMITADMTGNISRVLTRKKPAPKLEESDFLRGQWTTSTIASNQRKRKVATLEDEEEDVFNMLSSPNLSQRKRKATLQENTPSGVGWTASPRSSSFRKRRASTLRNKNADVTDGNNYLSHLVLNDVTMTQPYTGLNAFVGTPKSRTPTDDDYDSDRDYVWTDDEEFVSDDKKIPIRRVASYDEEDRRPRDFSEVRRSVASEPPRRHLAVDDIRKLSYQQRSLEPFNMVTEDDDEDDIIDIKVKGERPRPWWETESAPPAIKNQKSSIIDSIRNSCAIM | not soluble
8 | MNPVLKSSKLVIFDLDGTLYEGTDHFDYYANHLKQNVPQSQQLDFWRDYTAMKDGHHPVQIGKGYDVKRDYILTIDPMTISVQSVQTWDGSYVPAEEWETLYSDPVSFDFETIIAVGDGWWYPFVTAKHYGVEDCYASYVATKEYMVTDEFELTPLPGLREGLIELKATKEIVLVTNSDREDVQRLLHELHLHDVFNHIITSAKKPTRTTDIFKEVVHQYEVDMSQVVSVGDNFMNEIAQALTLGMQGIYIHPQRASEVAHDHLTVIRSVVELFKNLEHHHHHH | soluble
9 | MSISSIPSSPSISGSSTSSTAPNISFCYTWTTKLKTRKTADGEATILSISPKFATVHQLISFQWNIRIHATSEMNEEDEEVDYVAVDLYLVDGPVNEVNVMAEVGALEKTSTATLGSLPAGQKEAKTIKMQKGSGCEITDADRECVSKYLKENTRLFEPSTYLDAISPTPRASFLTANYNARVNSKVWKRRSRKRNGRIERRVLSDKEKTKYESKVQMILDEEREKLCDKREMLKEDDGGSRRASLISQFRENQHESVLDDHMFKRILVSCCESCEQRRLSFMCDSRTEDDSEGEDCEDNEEDDGEGGSDDEEDDGEEPHFECDKSDKEHVHDMLANLYFNKVVLPEMEYVEDFVDFLIDAELNDLPVLKRACERYLCSELNSKKDIGTCLLLDLLFNSIVFNLPVMKSMTLTELANRTHEFVDADTLLDQEEFKNLDKRMRTLADRNLVELIEQCVTFRDQKARVRVLPTAESFDISFDLTNQ | not soluble
10 | MSLPINVPSGLPAVKVLAKEGIFVMTEKRAIHQDIRPLEILILNLMPDKIKTEIQLLRLLGNTPLQVNVTLLYTETHKPKHTPIEHILKFYTTFSAVKDRKFDGFIITGAPVELLPFEEVDYWEELTEIMEWSRHNVYSTMFICWAAQAGLYYFYGIPKYELPQKLSGVYKHRVAKDSVLFRGHDDFFWAPHSRYTEVKKEDIDKVPELEILAESDEAGVYVVANKSERQIFVTGHPEYDRYTLRDEYYRDIGRNLKVPIPANYFPNDDPTKTPILTWWSHAHLFFSNWLNYCIYQKTPYRLEDIHEGHHHHHH | soluble
11 | MSLSKFTEMMKNRRSIYALGENLPISKEEVTALVKEVVRESPTAFNSQTQRVVFLFGDAHKKLWAMTEDALKPLTPAEAFPNTQAKLQGFAAGAGTILFFEDTDIVKNLQDSFPLYADNFPVWSEQATGLTQANVWTALAQENIGANLQHYNPVIDEAVAAEWSIPANWNLRAQMVIGSIEAPAGEKEYMEDSARFKEFNEGGSHHHHHH | soluble
12 | MGSDKIHHHHHHMGTHTEAMPSTTFAQTAVLSQRQRATLNALSAFPQGAQVSEIAASLGLHVNTVRGHLEELVTKNLVRTAPLPSTGRGRPVLMYHATSATPETVAQEYLSLISLLIQHIDLRQPDEIDEVAKVLGKQWAHSIFADHHLEELNGEQTLITLINYLRHLGFDPEVEKTQDPTTSMLQLRTCPFGSMAHAPLSFVCRAHEGMLSAVEKTGGISFELTPLSAPHQCSIVAQLHGNETIHRQRGEEHPHAGHR | not soluble
13 | MQIGANSLLQEMQSLKGEVTPSFGISPNNIVQQVNNTSGADFGQLLSQAIGNVSGLQSTSSNLATRLDMGDTTVSLSDSVIAREKASVAFEATIQVRNKLVEAYKEIMSMPV | not soluble
14 | ANTAFVSSACNTQKIPSGSPFNRNLRAMLADLRQNTAFSGYDYKTSRAGSGGAPTAYGRATCKQSISQSDCTACLSNLVNRIFSICNNAIGARVQLVDCFIQYEQRSF | soluble
15 | MSLEKLLRYLNDNDADKWQKNREKLDDETKAYYAEDLSLMDVLNDLWNGQSEQAATLYFGCYEKAAQNNFPSICEGEKIPLSQIRDKADQSIINLLEASKDKIPFSRALLDSIHATEYPVDSAMLQRLQNIREVALLEGMLKAPTPIIYQTYVKEYPNGKFIAQVNASENVRLYQLVKTAPTPANFKAFFEDPEMQKYYQDRGPRPYLAEVRTLYDDFLFQRIDSLKKEGNATAIRQIIDDYKNTPYLSTGARTHLNDLEYLSEKADFELLKPAIVNSESLGLLQEFLKTHKYKEFRDQAKNLRAPFILQAIVSTPTTVKYYTQGRLIKCCETDSTGNITTSYTYNDKGQLTTTLSVTEKNGQPINEVQTSRLYDPQGHCIFEVKTNPKTKTDFYRRARRIGIDGSIESDSLKYMDGRYTVSSYNKQGLLTETKEYNKNGEMEGYTVNKYDDKGRMTESQHQNMLFVNSPNQILSQKELYEYDKYGYLTRIVYQRIFGNSQKTSGCLTCLYDEYGNRIDGDSYYEYDNTGQWICRTSYDNPQQVERIQYIYKEGHHHHHH | soluble
16 | SSPSSPADWAKKLTDAVLRQKAGETLTAADRDFSNADFRNITFSKILPPSFMERDGDIIKGFNFSNSKFTYSDISHLHFDECRFTYSTLSDVVCSNTKFSNSDMNEVFLQYSITTQQQPSFIDTTLKNTLIRHKANLSGVILNEPDNSSPPSVSGGGNFIRLGDIWLQMPLLWTENAVDGFLNHEHNNGKSILMTIDSLPDKYSQEKVQAMEDLVKSLRGGRLTEACIRPVESSLVSVLAHPPYTQSALISEWLGPVQERFFAHQCQTYNDVPLPAPDTYYQQRILPVLLDSFDRNSAAMTTHSGLFNQVILHCMTGVDCTDGTRQKAAALYEQYLAHPAVSPHIHNGLFGNYDGSPDWTTRAADNFLLLSSQDSDTAMMLSTDTLLTMLNPTPDTAWDNFYLLRAGENVSTAQISPVELFRHDFPVFLAAFNQQATQRRFGELIDIILSTEEHGELNQQFLAATNQKHSTVKLIDDASVSRLATIFDPLLPEGKLSPAHYQHILSAYHLTDATPQKQAETLFCLSTAFARYSSSAIFGTEHDSPPALRGYAEALMQKAWELSPAIFPSSEQFTEWSDRFHGLHGAFTCTSVVADSMQRHARKYFPSVLSSILPLAWA | soluble
17 | MSLSIFEHFQARYEAAKDEELSIQDFLALCKENKSAYANAAERLLLAIGEPEMIDTSKHSRLSRIFSNRVIARYKTFEDFYGMEEAIEQIVAYLKHAAQGLEERKQILYLLGPVGGGKSSLAEKLKALMQQMPIYVLSANGQRSPVNDHPFCLFDVNEDGELLKQEYGIDRRYLRSIMSPWAAKRLHEFGGDITKFKVVKVRPSILDQIAVAKTEPGDENNQDISSLVGKVDIRKLEHFSQDDPDAYSYSGALCRANQGLMEFVEMFKAPIKVLHPLLTATQEGNYNGTEGLSALPFDGMILAHSNESEWQTFRNNKNNEAFLDRVYIVKVPYCLRVSEEVKIYQKLLDHSELSKAPCAPSTLDLLAQFSVLSRLKVPENSSLFSKMRVYDGETLKDTDPKAKSYQEYRDYAGVDEGMSGLSTRFAFKILSRVFNFDHSEVAANPVHLFYVIEQQVEREQFPQETADRYNEFLKGYLIPRYVEFIGKEIQTAYLESYSEYGQNIFDRYVTYADFWIQDQEYRDPETGQLFDRSALNSELEKIEKTAGISNPKDFRNEIVNFVLRARANNNGQNPVWTSYEKLRTVIEKKMFSNTEDLLPVISFNAKTSSDDQKKHDDFVARMMEKGYTEKQVRLLSEWYLRVRKSSEGHHHHHH | soluble
